The DeepSol protein solubility set

test: soluble on expression in E. coli; label from the status in PepcDB or PDB records

Soluble on expression in E. coli, soluble:
MKKIIETQRAPGAIGPYVQGVDLGSMVFTSGQIPVCPQTGEIPADVQDQARLSLENVKAIVVAAGLSVGDIIKMTVFITDLNDFATINEVYKQFFDEHQATYPTRSCVQVARLPKDVKLEIEAIAVRSA, MSLNKKRPLKGRFLHITDIHPDPHYKTGSTFDSGCHRKPKKDGKSEGKKATENERGNEDLDDKEFDTLIKNEDLAGKWGTAVSDCDCPMSLVNITFDWLKEEWANEVDFVVWTGDNARHDIDRRIPRTPKEIFDSNRMIVDRMLDAFGRDMPIVPSIGNNDIYPHNVLAAGPSRITEEFLLIWKHFIPSEAAHVFERGAYFSVEVIPDRLAVISLNTLFWYDANTLVDGCRDHSNDPGALEMDWLEVQLNNFRQRGMQVWLTGHVPPHMNHYYDNCYLRYGDLALRYQDTIVGHLFGHMNVDHFFFIDVDELEATSELTSTSSNTTLSDLPLLHGPRLPRPGPGKYTAMGRSGARKLEEELRKDEGHHHHHH, SMALYRVVLLGDPGVGKTSLASLFAGKQERDLHEQLGEDVYERTLTVDGEDTTLVVVDTWEAEKLDKSWSQESCLQGGSAYVIVYSIADRGSFESASELRIQLRRTHQADHVPIILVGNKADLARCREVSVEEGRACAVVFDCKFIETSATLQHNVAELFEGVVRQLRLRRRDSA, MLKRCNAKYSCEIIKEKRADGDDRMATIDLQKKSVKIVLEKKQLTKVTARVGLVLDITGSMRPLYKNGTVQNVVERILAVADQFDDNGLLDVWVYDNEFSRLKPVSEKDFSGYVDREILNNDRLHKFGRNDEPPVMKDVLRKYVTEEPSSYPAFIVFINDGGCKKSIKPIIEASSDKPVFWQFVGIGNGNFDFLNKLDTLEGRVIDNTNFLHIEEIDRISDDELYDALLAEFPFWLKEAKEKGIVREQEPPAEKPKKKGFFSRLFSKLEHHHHHH, MRVLATAADLEKLINENKGRLIVVDFFAQWCGPCRNIAPKVEALAKEIPEVEFAKVDVDQNEEAAAKYSVTAMPTFVFIKDGKEVDRFSGANETKLRETITRHK, AHHHHHHGSIHIIEEYFRPYPARKKVAQILWEAGMSVKDGKIYVKGVEVPISGIAQVAGVNRKIVYHTIEYIESKPALKLLFENLSPRTSLISIAPLMGWEVLELTIQKGKYEKTLAKVLESLAERRVRVIEIFGSNPYEEKSKAFLVVEGIVPFEVISSLREEGSLERIVIHTPEKEKERMICPKCEIKYCPRKIFISTR, MSLNRFFNRELSWLAFNTRVLNEAKDESLPLLERLKFLAIYDTNLDEFYMIRVAGLKQLYEHKIASKGIDGASPEEQLEKIKHYLAHEIEERELEFQKIQALLFKKGLCITPYNELNLEQKAKAKTYFKEQLYALVLPFKLDSSHTFPPLANLTFALFARIKDKETQIISYALIKLPSFIFRFVELEKGLFVLAEEIVEAHLEELFLEHEILDCMAFRVTCDADIAITEDEAHDYADLMSKSLRKRNQGEIVRLQTQKGSQELLKTLLASLRSFQTHSYKKHKLTGMHIYKSAIMLNLGDLWELVNHSDFKALKSPNFTPKIHPHFNENDLFKSIEKQDLLLFHPYESFEPVIDLIEQAASDPATLSIKMTLYRVGKHSPIVKALIEAASKIQVSVLVELKARFDEESNLHWAKALERAGALVVYGVFKLKVHAKMLLITKKTDNQLRHFTHLSTGNYNPLSAKVYTDVSFFSAKNEIANDIIKLFHSLLTSSATNSALETLFMAPKQIKPKIIELIQNEMNHQQEGYIILKANALVDSEIIEWLYQASQKGVKIDLIIRGICCLKPQVKGLSENIRVYSIVGKYLEHARIYYFKHENIYFSSADLMPRNLERRVELLIPATNPKIAHKLLHILEIQLKDTLKRYELNSKGRYIKVSNPNDPLNSQDYFEKQALKTFEGHHHHHH, MAHHHHHHMEWVELHDVDPETMSLELPPDMLFGPLEFPKQMRFLLAALRADNELADGYLARVIIDRMDLSLDPPILSEGDFLAAGGKELLDFSVEDFTGTKSRAQRKHIFFQPDQFLQFINIIAAYPTLTEYFVNEKDGVELVFQAYRHSKNPYACVMAMRSLTLFSFTQAVDGTVERRILQSNGVKTIVDAYKQSTGDPTETRFPTLLLSSIMRHYPKEGGKEFIDADGVEAVVNNLNIARYKGIPQHIRVLHDAQRLPKQSIGKKSVDARLEEADFLGVAMGLLDTFPEFYEATGDLLKLLTRVVPAHADPLELLEYRAMPILSKYYVRWREDQSFQTDGTRTLVAKLFELMLNDKTCQRCYDPSVASYELLECLRTAKLAVKDEQEKRVMRFPDPQRQPASAAA

Soluble on expression in E. coli, not soluble:
MGSDKIHHHHHHMSRAERLIELMITINAKRSFTAGELAEEFSVSKRTILRDLQVLESIGFPLYSKVGAAGGYHVLKERILPPIAFSESEVKSIFFAYQSLEYYNDLPFEQETISVLKKFLNCIPNDIQYNIENIRRKFVFWTPDRHCSTPLLKELFNIVMNEFTIKIEYSSKQKNSVRTIVPIGLYAMNGLWYCPAYCIKSESIKEFRVDRIVKILSIENLSSKKYKVLSSIHDYLKNMEVGTDYHIKINLTDEGVKRCETEFLLARGLKILSKGGYIDMYIPKSTLNWVAEYFLTFGKNATIIEPIELKHLIKSKVLELYNHHCI, MYDKILKMLTDTIKQFSDAPIYLDNVMQSSEPFYFVLSVEESMTDNVGQNVQNKAYNVDIALVDSKKDKQLVKSLTESCGAFFNVLNLDGNELFPEDYQTFKTDGIQHINFNVAFPQLIEWSEK, MLDWEQIFATRSSRMKASEIRELLKLLEQPDIISFAGGIPDPALFPAEEFQQAYAEIFSGAQVNAALQYSVSEGYKPLREWLAGEMDKIGIDCTADNVFIVSGSQQGLDYLGKLFLSPKDTALVTWPTYLGALSAFNAYEPNYDQLNPGGNRTPEAYRETAAKLGGAVKFAYLSADFSNPTGETVDLAGREKVLALADELDIAVIEDAAYQSLRYDGEAVPPIMALDIARSGGIENTRTIYCGSFSKTLAPGLRVGYIVASAPVIRKLVLMKQAADLHSSTINQIAIERVAARGFDKQVAKIKAAYSARRDAMLSALEKYMPKTTSWTKPEGGMFIWVTLPEGMDGAALLAKSIATEKVAFVPGRAFFADGSGTNTLRISFSCANEAMIEEGMKRLGRLITTAQAETTEVLAAI, MDLIPARIGLIYNPLGGWFRKHTARMQSLLATLPEIRQIQATDQIEFERAVTVVVEAKIGWLIVVGGDGTLQGVMSCLFECLPPDRWPEITIVPAGTTNMTALDLGMNGQAEQILSRIRQHLQRPGDMKQVRRP, MGSDKIHHHHHHMSIQSLLDYISVTPDIRQQGKVKHKLSAILFLTVCAVIAGADEWQEIEDFGHERLEWLKKYGDFDNGIPVDDTIARVVSNIDSLAFEKMFIEWMQECHEITDGEIIAIDGKTIRGSFDKGKRKGAIHMVSAFSNENGVVLGQVKTEAKSNEITAIPELLNLLYLKKNLITIDAMGCQKDIASKIKDKKADYLLAVKGNQGKLHHAFEEKFPVNVFSNYKGDSFSTQEISHGRKETRLHIVSNVTPELL, MGSDKIHHHHHHMKDDQWLEARAHGDPMFPCNVYRVKEVNGQVIIHCHWHHEMEWIYMEAGEAEFQIGTKMTTVRAGEGLFIPSGHLHGAYPVSDKPFSLYATVVHPDFISSFGYDLIQSRYIDPFKDSERTGPIKLCPTHYWMSDMLTMLQATISQFQQKEEGYELVIKANLLQMMAELVKHFPRTEEQKTGTPQQIRQIKKVLQFIDEHYDEKLTIKQLANLVQMSEGHFSRFFKSIVRMTAVEYIHTQRLNKAARLLRETDRTIMDISMSVGFDHPSYFIKLFKRHKRCTPSEFRRIGLPTFSENMKT, MGSDKIHHHHHHMARILIIRFSALGDVAMTIPVVHSLAVQYPQLEITVLSRAVWQPLFQGLPANVSFIGADLTGKHKGLWGLNTLYSELKAKHFDYVADFHHVLRTKYLCLRFRLANIPVASIYKGRVGKEKLVRRRHKVLENQKSSFRRYADVLEKLGFPVLLNFSSIYGDEKGNFAEIEPVTGAKDNLKWIGIAPFAKHMGKIYPIELQEQVVAHFAADPKVKVFLFGGGKSEQEVFDGWVAKYPTVVSMIGKLNMRTELNLMSHLDVMLSMDSANMHLASLVNIPVISVWGATHPYAGFMGWKQLPVNTVQFDLSCRPCSVYGQKPCWRGDYACLREIKPEQVIAKIEGIIN, MAHHHHHHMRADSVSQTRKQQPNSSALGDDGDDEGANGEVEGRPMRQCMHITDKEIVIKLQNWFCDSNEIAGEWEAAGKTESRRSGASSNLEISQTIPFHSSHKSSLGKSASSSTLRPSNTCIPADLSAPLDGAPSLEVSTTSETRKIHSARGPRADERASRPYRTPSTDAVRYCAVYLRHFATIHQQHPYENSRQEQLLPTLAPEPLTAPLVALLTPWERNFIYRDILGQTEEQVSRAMEIVEHSPNMSYTYPTPFLKVSGISRVLLVEPPAAERVALLLRVMRAAEVLQVPSLRSLCAAWCADFIVRASYGARDHFEAAALVRRCFQVQNDWSRKEMDCLKLENEWPVNEEEY, MNQVEMTEFPVGKPQEALYGVASTPDGALWFTLAKGNAIGRLSPDGAVSRFPLPHADGQPTTITCGPDGRPWFTLSSANAIGRLAPDGALRMFELPRPASRPFGIAGGHDGCLWFAEMAGDRIGRITIDGDIEEYDLPVKGGYPSCMAAGRDGLMWFTLNQAGAVGSISATAAPRIFPLGAADAAPVGIASDAQGALWIAQAGNGAIARFDAGGRITEFPLHSRAARPHAIAADAAGNLWFTEWGANRIGRISEAGDLAGYELAAPGSEPHGIAIDPHGCVWAALETGRLVRLQASPRDLEHHHHHH, MGFFSGQFSNVVEWEEFREDMIFWKWHNREIKRGSKLIIRPGQDAIFLFNGRIEGIFKDEGDYDIESQIIPFLSTLQGFKFGFNSGMRAEVLFVNTKEFTAKWGTKSAINIPTPQLPGGIPIRANGTFTFKVNDYVKLIDRIAGVKDSFLVEDVRLRIMALLDQLMMKWIVQEGRDMFNLQSNSFAIADGLKTDLDMQIYDMGITVSQLTIMSFTYPEEIQQMIAKAASHTMIGDMGRYQQVSVLDGIAGGKLEHHHHHH, MMSVPVMADEGTKWDWPLQKGDGVVNVLDDDDHFEVGLEAHNFLPKEIEVKNIGELLEIHMEHNVKKDSFGDVSRNITRCYKLPKNVDMKTIKSNLDSHGILHIEARKMH, MGSDKIHHHHHHMPLTRERTDMSNLLSISDLSITFDNGPRVVDGLSFSIDKGQTLALVGESGSGKSVSALSILRLLDERHAAYPAGHILYKGEDLLQAQEKRLRQIRGRHISMIFQEPMTSLNPLHTVEKQISETLELHKGMRGPQARKRCLELLELVGIPAPETRLKSYPHQLSGGQKQRVMIAMALANEPDLLIADEPTTALDVTVQKQVLELLKSLQQKLGMAVLLITHDLSIVRRYADYVVVMERGKMVEQGATETLFRSPSHTYTRKLIDAEPPEHPLPAANGTETLMTVDNVNVHFPIRKTMLGKVKESFHAVQDASFELRAGETLGIVGESGSGKTTLGHALLKLTPSTGTFSLCGTELSALSQKAFRPWRRRVQIVFQDPFGSLSPRMSVEEIIREGLEIHEPGSSGQHEARVIQALKDVGLDPDARHRYPHEFSGGQRQRIAIARALVLQPDLMILDEPTSALDRTVQKQVIELLREIQARYRLSYIFISHDLAVVRALSHKLLVLRQGRIVEYGDAETIFREPQQPYTRELLNAAFFYQSTTN, MLWRKRLFAHLYPGLSARHEALVAERKRALFREALRRARPERVLEIGPGPGTNLAHLPEGVAYLALEPNPFFHPRLREEARKRGLALTLLPGRAEAIPLPGGSVDLVVATLVLCSVADPEKAIEEVHRVLRPGGAYLFLEHVAAPKGAPLRLLQEAATPFFVFFGDGCHPNRKTLAQIQARFPRVEAEAFSLPLPVVAPHVAGLAFKELEHHHHHH
